Experimental data as given in the nanobody polyreactivity screen of Harvey et al. (2022).

Assay: yeast display, Sf9 membrane polyspecificity reagent, FACS + sequencing; frameworks hold sequencing errors
How it was run: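 Galactose-induced (36–48 hours) yeast carrying a synthetic nanobody display library were exposed to 10% biotinylated, detergent-solubilized Sf9 membrane reagent at 4 °C for 1 hour. FACS followed streptavidin microbead enrichment, using low and high (top ~1%) gates for expression (anti-HA) and reagent binding (streptavidin). Colony PCR, MiSeq 2 × 250 sequencing and CDR-length filtering followed. Labels for polyreactivity reflect the gate of origin.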

Row | Sequence | polyreactivity (PSR sort gate)
1 | QVQLVESGGGLVQAGGSLRLSCAASGSTFEYYAMGWDRQAPGKERELVAAISITGGSSYYADSVKGRFTISRDNAKNTVYLQMNSLKPEDTAVCYCAASVPLARRLGYPWRRAGYNYWGQGTQVTVSS | high polyreactivity
2 | QVQLVESGGGLVQAGGSLRLSCAASGSTFEYYAMGWYRQAPGKERELVAAISTAGSTYYADSVKGRFTISRDNAKNTVYLQMNSLKQEDTAVYYCAVDPSPRSYYNYYWGQGTQVTVSS | high polyreactivity
3 | QVQLVESGGGLVQAGGSLRLSCAASGSTFEYYAMGWYRQAPGKERELVAGISTGGSTNYADSVKGRFTISRDNAKNTVYVQMNSLKTEDSAVYYCKRDWALYVFCRHYHAYYSWGQRTQVTVSS | low polyreactivity
4 | QVQLVESGGGLVQAGGSLRLSCAASGSTFEYYAMGWYRQAPGKERELVATISIDGRTNYADSVKGRFTISRDNAKYTVYLQMNSLKPEDTAVYYCAASDLTAISSKYDYWGQGTQVTVSS | low polyreactivity
5 | QVQLVESGGGLVQAGGSLRLSCAASGSTFFDYAMGWYRQAPGKERELVAAISRSGDTNYADSVKGRFTMSRDNAKNTVYLHMNSLKPEDTAVYYCAKYWAYRRHWVGFYYWGQGTLVTVSS | low polyreactivity
6 | QVQLVESGGGLVQAGGSLRLSCAASGSTFFEYAMGWYRKAPGKEREFVAGISWSGGITYYADSVKGRFTISRDNAKNTVYLQMNSLKPEDTAVYYCATAGGDWYGVDYWGQGTQVTVSS | low polyreactivity
7 | QVQLVESGGGLVQAGGSLRLSCAASGSTFFFNAMGWYRQAPGKERELVAGISSSGGSTHYADSVKGRFTISRDNAKNTVYLQMNSLKPEDTAVYYCNAQQYLTFRGTGDYWGQGTQVTVSS | low polyreactivity
8 | QVQLVESGGGLVQAGGSLRLSCAASGSTFFGNTMGWYRQAPGKERELVAAISRRGGSTYYADSVKGRFTISRDNAKNTVYLQMTSLIPEDTAVYYCAKYYQSGGYTPGKYDYWGQGTQVTVSS | high polyreactivity
9 | QVQLVESGGGLVQAGGSLRLSCAASGSTFFGYAMGWYRQAPGKERELVASITWSSGRTNYADSVKGRFTISRDNAKNTVFLQRYSVKPEETAVYYCAQVLDHQLYIDHWVRIYGYWGQGTQVTVSS | low polyreactivity
10 | QVQLVESGGGLVQAGGSLRLSCAASGSTFFIYAMGRYRQAPGEERELVAAITSGGTYADSVKGRFTISRDNAKNTVYLQMNSLKPVDTAVYYCNAGNNVVVDYDYWGQGTQVTVSS | low polyreactivity
11 | QVQLVESGGGLVQAGGSLRLSCAASGSTFFPNAMGWYRQAPGKERELVAAIRWRGGTYYADSVKGRFTISRDNAKNTVYLQMNSLKQEDTAVYYCATSVKPSYDYWGQGTQVTVSS | low polyreactivity
12 | QVQLVESGGGLVQAGGSLRLSCAASGSTFFPNDKGWYRQAPGKERELVAAISWRGGNTYADSVKGLFTISRDNAKYTVYLQMNSLKPEDTAVYYCAAEFWYTYPYLVDYWGQGTLVTVSS | low polyreactivity
13 | QVQLVESGGGLVQAGGSLRLSCAASGSTFFPNGMGWYRLAPGKERELVAAITQDGGSTYYADSVKGRFTISRDNAKNTVSLQMNSLKPEDTAVYYCAASAGPSYEYGYWGQGTQVTVSS | low polyreactivity
14 | QVQLVESGGGLVQAGGSLRLSCAASGSTFFRNAMGWYRQAPGKERELVASITSGGNTKYADSVKGRFTISRDNAKNTVYLQMNSLKPEDTAVYYCAAKFYHFASYSRLYNYWGQGTQVTVSS | low polyreactivity
15 | QVQLVESGGGLVQAGGSLRLSCAASGSTFFRYAMGWYRQAPGKERELVAAISYSGDSTYYADSVKGRFTISRDNAKNTVDLQMNSLKPEDTAVYYCNAVYFRYRYNYWGQGTQVTVSS | high polyreactivity
16 | QVQLVESGGGLVQAGGSLRLSCAASGSTFFRYAMGWYRQAPGKERELVAAITSGGNTYYADSVKGRFTISRDNAKNTVYLQMNSLIPEDTAVYYCAVVFWQLAHRYDYWGQGTQVTVSS | low polyreactivity
17 | QVQLVESGGGLVQAGGSLRLSCAASGSTFFRYAMGWYRQAPGKERELVAAITSSGGRTYYADSVKGRFTISRDNAKNTVYLQMNSLKPEDTAVYYCADASGTSPYDYWGQGTQVTVSS | high polyreactivity
18 | QVQLVESGGGLVQAGGSLRLSCAASGSTFFSKAMGWSRQEPGKERELVAAISRSGATTSYADSVKGRFTISRDNAKNTVYLQMNSLKPEDTAVYYCAVGRRYYQDYDYSGQGTQVTVSS | high polyreactivity
19 | QVQLVESGGGLVQAGGSLRLSCAASGSTFFSNAMGWYRQAPGKERELVAAISGSGDSTYYADSVKGRFTISRDNAKNTVYLQMNSLKPEDTAVYYCAARLSTAHYYLGDYWGQGTEVTVSS | low polyreactivity
20 | QVQLVESGGGLVQAGGSLRLSCAASGSTFFTYAMGWYRQAPGKERELVAAISWSGGTTYYADSVKGRFTISRDNAKNTVYLQMNSLKPEDTAVYYCASDRDGILKANDYWGQGTQVTVSS | low polyreactivity
21 | QVQLVESGGGLVQAGGSLRLSCAASGSTFFTYAMGWYRQAPGKERELVAGISYSGGSTYYADSVKGRFTISRDNAKNTVYVQMNSLKPEDTAVYYCNAYISYGDFDLEFYYWGQGTQVTVSS | low polyreactivity
22 | QVQLVESGGGLVQAGGSLRLSCAASGSTFFYNAMGWYRQAPGKERELVAAISRGGGITYYADSVKGRFTISRDNAKNTVYLQMNSLKPEDTAVYYCQYLSRGLNTYRSSQGDDDYWGQGTQVTVSS | high polyreactivity

Row | Sequence | polyreactivity (PSR sort gate)
23 | QVQLVESGGGLVQAGGSLRLSCAASGSTFFYYAMGWYRQAPGKDRELVAAISGGGGDTTYADSVKGRFTISRDNAKNTVYLQMNSLKPEDTAVYYCAAVPGSFGSGIFDYWGQGTQATVSS | low polyreactivity
24 | QVQLVESGGGLVQAGGSLRLSCAASGSTFFYYAMGWYRQAPGKERELVAAISQSSASTYYADSVKGRFTISRDNAKNTIYLQMNSLKPEDTAVYYCAADYWSVPYIYEYWGQGTQVTVSS | high polyreactivity
25 | QVQLVESGGGLVQAGGSLRLSCAASGSTFGANAMGGYRQAPGKERELVATISSGGRTYYADSVKGRFTISRDNAKNTVYLQMNSLKPEDTAVYYCNAGADYTYVYISVYVLYDYWGQGTQVTVSS | low polyreactivity
26 | QVQLVESGGGLVQAGGSLRLSCAASGSTFGANAMGLYRQAPGKEREFVAAISRSGVRTYYADSVKGRFTISRDNAQNTVYLQMNSLKPEDTAVYYCAADGYWWTYTRYDYWGQGTQVTVSS | low polyreactivity
27 | QVQLVESGGGLVQAGGSLRLSCAASGSTFGANAMGWYRQAPGKERELVAAITYDGGSTYYADSVKGRFTISRDTAKNTVYLQMNSLKPEDTAVYYCAADFHIDSYYWGYYWGQGTQVTVSS | low polyreactivity
28 | QVQLVESGGGLVQAGGSLRLSCAASGSTFGAYAMGWYRQAPGKEREFVAGISVRGGSTYYADSVKGRFTISRDNAKNTVYLQMNSLKPEDTAVYYCAARRVDTRVHVRYRYYYWGQGTQVTVSS | high polyreactivity
29 | QVQLVESGGGLVQAGGSLRLSCAASGSTFGAYAMGWYRQAPGKERELVAAISKRGGSTYYADSVKGRFTISLDNAKNTVYLQMNSLKPEDTAVYYCATDHFSPTYGYWGQGTQVTVSS | low polyreactivity
30 | QVQLVESGGGLVQAGGSLRLSCAASGSTFGAYAMGWYRQAPGKERELVAAISSSDGSTYYADSVKGRFTISRDNAKNTVYLQMNSLKPEDTAVYYCAAEYYSAVYIDEYWYDYWGQGTQVTVSS | high polyreactivity
31 | QVQLVESGGGLVQAGGSLRLSCAASGSTFGAYAMGWYRQAPGKERELVAAISSSGGRTYYADSVKGRFTISRDNAKNTVYLQMNSLKPEDTAVYYCATYYRHYDLLYYYWGQGTQVTVSS | high polyreactivity
32 | QVQLVESGGGLVQAGGSLRLSCAASGSTFGDYAMGWYRPAPGKERELVAAITIGGITTYADSVKGRFTISRDNAKNTVYLQMNSLKPEDTAVYYCAAAERGDWDDYWGQGTQVTVSS | low polyreactivity
33 | QVQLVESGGGLVQAGGSLRLSCAASGSTFGDYAMGWYRQAPGKERELVAAISFSDDSTYYADSVKGRFTISRDNAKNTVYLQMNSLKPEDTAVYYCAKEAEYSTPGGDYWGQGTQVTVSS | low polyreactivity
34 | QVQLVESGGGLVQAGGSLRLSCAASGSTFGENAMGWYRQAPGKERELVAAINYSGGSTYYADSVKGRFTISRDNAKNTVYLQMNRLKPEDTAVYYCAAVNLPQLYYDYDYWGQGTQVTVSS | low polyreactivity
35 | QVQLVESGGGLVQAGGSLRLSCAASGSTFGENDMGWYRQAPGKERELVAAITWSGGSTYYADSVKGRFTISRDNAKNPVYLQLNSLNPEDTAVYYCAARSTYRHWYRTGSRFDYWGQGTQVTVSS | low polyreactivity
36 | QVQLVESGGGLVQAGGSLRLSCAASGSTFGEYAMGWYRQAPGKERELVAAITFSGGSTYYADSVKGRFTISRDNAKNTVYLQMNSLKPEDTAVYYCNADGVWVYGYRWEWLWYDYWGQGTQVTVSS | low polyreactivity
37 | QVQLVESGGGLVQAGGSLRLSCAASGSTFGFNAMGWYRQAPGKERELVAAIRGGDSTNYADSVKGRFTISRDNAKNTVYLQMNSLKPEDTAVYYCAAVLRYVVRPYSYWSGGYDYWGQGTQVTVSS | high polyreactivity
38 | QVQLVESGGGLVQAGGSLRLSCAASGSTFGFNAMGWYRQAPGKERELVAAISRSGGSTYYADSVKGRFTISRDNAKNTVYLQMNSLKPEDTAVYYCAVGYRYLKWVDYWGQGTQVTVSS | high polyreactivity
39 | QVQLVESGGGLVQAGGSLRLSCAASGSTFGFNAMGWYRQAPGKERELVASITSGDSTYYADSVKGRFTISRDNAKNTVYLQMNSLKPEDTAVYYCAKVGGGGQAGDNPILSDYWGQGTQVTVSS | low polyreactivity
40 | QVQLVESGGGLVQAGGSLRLSCAASGSTFGFNVMGWYRPAPGKERELVAAIRYRDGSTYYADSVKGRFTISRDNAKNTVYLQMNSLKPEDTAVYYCNTRITQVGDYIYDYWGQGTQVTVSS | low polyreactivity
41 | QVQLVESGGGLVQAGGSLRLSCAASGSTFGFNVMGWYRQAPGKERELVAVITSDGNTYYADSVKGRFTISRDNAKNTVYLQMNSLKPEDTAVYYCAVSELGTPYGYWGQGTQVTVSS | low polyreactivity
42 | QVQLVESGGGLVQAGGSLRLSCAASGSTFGFYAMGWYRQAPGKERELVAAIDWISGSTYYADSVKGRFTISRDNAKNTVYLQLNSLKPEDTAVYYCAAQFYYHFRYHFDWGQGTQVTVSS | low polyreactivity
43 | QVQLVESGGGLVQAGGSLRLSCAASGSTFGGNAMGWYRQAPGKEREFVAAIRFSGGSTYYADSVKGRFTISRDNAKNTVYLQMNSLKPEDTAVYFCAKRGYGHLIPIAYEYWGQGTQVTVSS | low polyreactivity
